5 molecules from publication PMC3674885 can be followed below.

Where two headings read alike, the source gives them in different places.

Data set [1] deals with TrkA receptor (rat) on MG139 cells (rat) (UniProt P35739).
The target is the same in data set [2]. Briefly: radioligand binding.
Data set [3] deals with both classes of receptors (TrkA and p75) on PC12 cells (rat (endogenous in PC12)). Briefly: radioligand binding.
Data set [4] shares this target. Description: radioligand binding. The source holds these as a separate data set.
Data set [5] has as its target TrkA receptor (rat) on MG139 cells (rat) (UniProt P35739). Briefly: radioligand binding. The source holds these as a separate data set.
The target in data set [6] is high-affinity site on PC12 cells (cold-temperature, cold-chase stable binding) (rat (endogenous in PC12)). Briefly: radioligand binding.
Data set [7] deals with 7-84-103 NGF mutein (F7A/H84A/R103A). Description: native gel or EMSA + other: high-performance ion-exchange chromatography. The conditions noted are these: native gel or EMSA + other: high-performance ion-exchange chromatography (HPIEC).

UniProt P35739, sequence (P35739 33-799): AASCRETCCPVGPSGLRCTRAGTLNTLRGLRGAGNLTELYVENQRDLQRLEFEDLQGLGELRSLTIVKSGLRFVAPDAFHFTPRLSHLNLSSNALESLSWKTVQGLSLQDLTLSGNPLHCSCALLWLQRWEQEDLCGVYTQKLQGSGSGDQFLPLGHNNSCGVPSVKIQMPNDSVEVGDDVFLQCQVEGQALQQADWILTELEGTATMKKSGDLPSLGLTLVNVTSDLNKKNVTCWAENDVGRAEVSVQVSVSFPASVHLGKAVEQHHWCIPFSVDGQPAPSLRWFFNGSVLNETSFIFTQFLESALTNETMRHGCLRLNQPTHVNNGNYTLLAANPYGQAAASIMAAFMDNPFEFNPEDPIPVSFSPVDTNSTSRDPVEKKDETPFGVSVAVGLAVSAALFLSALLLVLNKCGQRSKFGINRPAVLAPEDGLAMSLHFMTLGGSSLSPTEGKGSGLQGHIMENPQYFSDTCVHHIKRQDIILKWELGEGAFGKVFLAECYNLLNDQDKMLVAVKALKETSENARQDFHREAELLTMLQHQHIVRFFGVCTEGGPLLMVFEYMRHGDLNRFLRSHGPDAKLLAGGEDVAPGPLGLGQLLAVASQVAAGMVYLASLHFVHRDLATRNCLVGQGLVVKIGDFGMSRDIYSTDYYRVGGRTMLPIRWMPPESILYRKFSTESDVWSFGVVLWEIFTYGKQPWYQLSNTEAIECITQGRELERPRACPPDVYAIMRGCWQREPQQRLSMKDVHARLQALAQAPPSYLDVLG

By IC50 is commonly meant the concentration needed to halve the response being measured. Low readings indicate inhibition by little substance, high ones a need for much substance. Consider “7-84-103 NGF mutein (F7A/H84A/R103A) (ligand)”, for which, in data set [1], the XTT assay of survival of MG139 cells (TrkA+/p75-), 72 hr, EC50 amounted to 17 nM. In data set [1], this molecule showed a trypan blue survival assay of PC12 cells (TrkA+/p75+), 72 hr, EC50 of 1.26 nM. In addition, the half-inhibitory concentration (IC50) in data set [2] came out at 15 nM; in data set [3] it was 1.9 nM; in data set [4], 2.45 nM; in data set [5] it was 11.5 nM.
The molecule “Heteromutein 1 (heterodimer of the Δ9/13 and 7-84-103 NGF muteins) (from UniProt P01139 122-241) (complex)” yielded an XTT assay of survival of MG139 cells (TrkA+/p75-), 72 hr, EC50 in data set [1] of 19 nM. In data set [1], this molecule had a neurite outgrowth of PC12 cells, 48 hr, EC50 of 1.8 nM. The trypan blue survival assay of PC12 cells (TrkA+/p75+), 72 hr, EC50 in data set [1] turned out to be 0.47 nM. In addition, the IC50 in data set [2] was 0.64 nM; in data set [3] it was 0.53 nM; in data set [4] it was 0.59 nM; in data set [5], 0.67 nM.
The molecule “wild-type nerve growth factor (unlabelled) (from UniProt P01139 122-241) (ligand)” displayed a trypan blue survival assay of PC12 cells (TrkA+/p75+), 72 hr, EC50 in data set [1] of 0.28 nM. Further, the IC50 was found to be 0.25 nM in data set [4] and 0.03 nM in data set [5].
In data set [3], “Δ9/13 NGF mutein (from UniProt P01139 122-241) (ligand)” displayed an IC50 of 0.51 nM. In data set [4], the IC50 worked out at 0.46 nM and the percent of ^125I-NGF binding left at the plateau of the competition curve was 20%. The percent of the cold-chase stable ^125I-NGF binding competed away in data set [6] was determined as 27%.

B1: Δ9/13 NGF mutein (protein)
chain: SSTHPVFHMGEFSVCDSVSVWVGDKTTATDIKGKEVTVLAEVNINNSVFRQYFFETKCRASNPVESGCRGIDSKHWNSYCTTTHTFVKALTTDEKQAAWRFIRIDTACVCVLSRKATRRG
Consider B1, for which, in data set [7], the “percent of the protein as heterodimer Htm1 in the 1:1 mixture (Mix1a)” value came out at 40% in Mix1a and the “percent of the protein as heterodimer Htm1 in the 1:2 mixture (Mix1)” value was 37.5% in Mix1.
